Entries after “also recorded” stand apart in the source; their conditions may differ.
Key:
[1] = tested on: Huh7 human liver cell line; assay: Luciferase expression from forskolin-inducible promoters, transient transfection of PM-RQ plasmid in Huh7; assay type: cell-based; parameters: luciferase activity following induction / fold induction of promoter (luciferase activity): dose or concentration left out as unconfirmed
Method: Luciferase readouts were normalised to β-galactosidase to produce normalised relative luminometer units (RLUs). β-galactosidase containing pcDNA6 plasmid was used as internal control for transfection efficiency (Thermofisher, V22020). β-galactosidase activity was measured as per manufacturer's instructions (Mammalian βGalactosidase Assay Kit, 75707/75710, Thermo Scientific) using 25 μl of lysate. 25 μl of lysate was transferred into a microplate well and mixed with 25 μl of β-galactosidase Assay Reagent, equilibrated to room temperature. The mixture was incubated at 37° C. for 30 min and absorbance measured at 405 nm.
The forskolin-inducible promoters were initially used to drive expression of luciferase in the Huh7 human liver cell line and the C2C12 […]. The promoter constructs were used to drive expression of luciferase in the PM-RQ plasmid. The tested promoters were synthesised directly upstream of the ATG of PM-RQ plasmid.
• Huh7 cells which are a human liver cell line • DPBS: without CaCl2, without MgCl2 (Gibco, 14190-094) • DMEM (Sigma, D6546) • FBS (Sigma, F9665) • Pen-Strep (Sigma, P4333) • Promega Fugene-HD (E2311) • Forskolin (Sigma, F6886) • NKH477 (Sigma, N3290) • LARII (Dual Luciferase Reporter 1000 assay system, Promega, E1980) • 48 well plates flat bottom (353230, Corning) • Trypsin-EDTA (25200-056, Gibco) • T25 & T75 flask (353108, 353136, Corning) • 15 ml Falcon tubes (430791, Corning) • Stripettes 5 ml, 10 ml and 25 ml (4101,4051,4251, Corning)
Cells were seeded onto a 48 well plate at a density of 25,000 cells/300 μl
• On the day of transfection, DNA to be transfected was diluted to a 100 ng/μl stock solution. DNA to be transfected was the RTV-017, RTV-019 or CMV-IE promoter driving luciferase in the PM-RQ plasmid. • Per 48 well transfection, 45 ng of DNA was mixed with 4.1 μl of Optimem medium. • 0.5 μl of […] was mixed with 4 μl of Optimem medium. • These 2 solutions were mixed and incubated at room temperature for 15 minutes. • The final solution was then added to the well drop wise. • 3 hrs after transfection the inducer was added to the appropriate wells at the indicated concentration. Inducer was forskolin at […].
• 24 hrs after induction, the luciferase activity was measured as described below.
• Luciferase activity was measured using LARII (Dual Luciferase Reporter 1000 assay system, Promega, E1980) • 24 hours after induction, the media was removed from the cells • The cells were washed once in 300 μl of DPBS. • Cells were lysed using 100 μl of passive lysis buffer and incubated with rocking for 15 minutes. • The cell debris was pelleted by centrifugation of the plate at max speed in a benchtop centrifuge for 1 min • For luciferase, 10 μl sample was transferred into white 96-well plate and luminescence measured by injection of 50 μl of LARII substrate
RTV-017 and RTV-019 were transiently transfected into the human liver cell line Huh7 (FIG. 2). RTV-019 was transiently transfected into the […] C2C12 (FIG. 3). The activity of the promoters was assessed using luciferase activity. The luciferase activity was measured with and without the presence of […] forskolin.

CHO-GSK1SV cell line = assay: SEAP expression and cell number in normoxia vs 24 h hypoxia, stably transfected CHO-GS-KSV1; assay type: cell-based, chinese hamster; conditions: stably integrated CHO-GSK1SV
Method: Cell suspensions of 6×10^5 cells per mL are incubated on an orbital shaker set at 8% CO2, 20% O2, 37° C., 85% relative humidity and 140 rpm overnight. 2.86×10^7 cells were centrifuged at 200 g for 3 minutes. Media is then aspirated and cell pellet resuspended in 2 mL fresh CD-CHO media to obtain a concentration of 1.43×10^7 cells per mL. 700 μL of cell suspension was added to each of two electroporation cuvettes each containing […] of linearised DNA in 100 μL of sterile TE buffer (Thermofisher, 12090015). Each cuvette was electroporated, delivering a single pulse of 300V, […] with resistance to infinity. Immediately after delivery of pulse electroplated cells were transferred to Erlenmeyer 125 mL flask containing 20 mL of CD-CHO media pre-warmed to 37° C. Electroporated cells from two cuvettes are combined into a single 125 mL flask to generate one pool of cells. Cells are cultured on an orbital shaker set at 8% CO2, 20% 02, 37° C., 85% relative humidity and 140 rpm. Cells are transferred to fresh CD-CHO media 24 hours after transfection and cell cultures monitored and given fresh CD-CHO media every 2-4 days. Usually after about 10-14 days cell numbers will be high enough to start passaging. Cells were selected at 14 days and then expanded. Induction was performed once doubling time had returned to approx. 24 hrs. The cells assayed in this example were at passage number 15, 17, 19 and 21.
The transfected DNA was pXC-17.4 expression vector (Lonza Biologics plc) where one of the promoter constructs (RTV-015, HYBT, RTV-016, HV3C) or a control promoter (CMV-IE) have been cloned upstream of the SEAP gene, which had been cloned into the multiple cloning site within the vector expression cassette. Promoters were closed into the pXC-17.4 vector using Gibson assembly. The pXC-17.4 expression vector is designed for making stable cell lines in the CHO-GSK1SV cell line as it contains the […] gene which has been knocked out of the cell line. Therefore, selection of cells in glutamine drop-out medium will select for cells that have stably integrated the plasmid.
Stably transfected CHO-GS cells were seeded at 500,000 cells/ml and allowed to grow for 24 hrs, at this point the cells were counted and placed under hypoxic conditions as previously described. After 24 hrs, the cell numbers and the expression of SEAP was measured.
SEAP Reporter Gene Assay, chemiluminescent (Roche, CAT #11 779 842 001) was used to measured SEAP activity as per manufacturers protocol. All reagents and samples were fully pre-equilibrated at room temperature. Culture supernatant was collected from the stably transfected CHO-GS at the specific time points (0 h and 24 h). The supernatant was diluted 1:4 in dilution buffer and heat treated at 65° C. for 30 minutes. The heat-treated sample was then centrifuged for 30 s at maximum speed. 50 μl of the heat-treated sample was then added to 5 μl of inactivation buffer and incubated for 5 min at room temperature. 50 μl of substrate reagent was then added and incubated for 10 min at room temperature. The signal is then read at 477 nm and compared to a calibration curve. SEAP expression was normalized against cell number to ensure that the increase in activity was not due to increased cell numbers and was true induction. The result of this experiment can be seen in FIG. 16 and FIG. 17.

Molecule	luciferase activity without induction (background) ([1]; Huh7, before addition of forskolin)	luciferase activity following induction ([1]; Huh7, forskolin)	fold induction of promoter (luciferase activity) ([1]; Huh7 liver cells, PM-RQ plasmid, forskolin, 24 hrs after induction)	SEAP activity in normoxia (CHO-GSK1SV cell line)	inducibility after 24 hours in hypoxia (rank) (CHO-GSK1SV cell line)
RTV-019: synthetic forskolin-inducible promoter, SEQ ID NO: 44; 3× ATF6, 4× AP1(1) and 3× HRE1 TFBS and CMV-MP (nucleic acid, Synp-RTV-019, 3× ATF6, 4× AP1(1) and 3× HRE1 TFBS and CMV-MP) DNA: TGACGTGCTGATGATGCGTAGCTAGTAGTTGACGTGCTGATGATGCGTAGCTAGTAGTTGACGTGCTGATGATGCGTAGCTAGTAGTTGAGTCAGATGATGCGTAGCTAGTAGTTGAGTCAGATGATGCGTAGCTAGTAGTTGAGTCAGATGATGCGTAGCTAGTAGTTGAGTCAGATGATGCGTAGCTAGTAGTCTGCACGTAGATGATGCGTAGCTAGTAGTCTGCACGTAGATGATGCGTAGCTAGTAGTCTGCACGTAGATGATGCGTAGCTAGTAGTGCAGTTAGCGTAGCTGAGGTACCGTCGACGATATCGGATCCAGGTCTATATAAGCAGAGCTCGTTTAGTGAACCGTCAGATCGCCTAGATACGCCATCCACGCTGTTTTGACCTCCATAGAAGATCGCCACC	low background activity	high activity; also recorded: much higher activity	24 fold		
RTV-015: synthetic hypoxia-inducible promoter, SEQ ID NO: 81; 5 HRE1 elements spaced by 40 bp and minimal promoter MP1 (nucleic acid, Synp-RTV-015, 5 HRE1 elements spaced by 40 bp and minimal promoter MP1) DNA: ACGTGCGATGATGCGTAGCTAGTAGTGATGATGCGTAGCTAGTAGTACGTGCGATGATGCGTAGCTAGTAGTGATGATGCGTAGCTAGTAGTACGTGCGATGATGCGTAGCTAGTAGTGATGATGCGTAGCTAGTAGTACGTGCGATGATGCGTAGCTAGTAGTGATGATGCGTAGCTAGTAGTACGTGCTTGGTACCATCCGGGCCGGCCGCTTAAGCGACGCCTATAAAAAATAGGTTGCATGCTAGGCCTAGCGCTGCCAGTCCATCTTCGCTAGCCTGTGCTGCGTCAGTCCAGCGCTGCGCTGCGTAACGGCCGCC				almost no SEAP activity	lowest
HV3C: synthetic hypoxia-inducible promoter, SEQ ID NO: 85/87; 4 HRE3 elements and CMV minimal promoter (nucleic acid, Synp-HV3C, 4 HRE3 elements and CMV minimal promoter) DNA: GATCTTTGTATTTAATTAAGACCTTGAGTACGTGCGTCTCTGCACGTATGGCGATTAAGACCTTGAGTACGTGCGTCTCTGCACGTATGGCGATTAAGACCTTGAGTACGTGCGTCTCTGCACGTATGGCGATTAAGACCTTGAGTACGTGCGTCTCTGCACGTATGGCGATTAATCCATATGCAGGTCTATATAAGCAGAGCTCGTTTAGTGAACCGTCAGATCGCCTAGATACGCCATCCACGCTGTTTTGACCTCCATAGAAGATCGCCACC				almost no SEAP activity	highest
